# Source: the supplement of paper PMC9112550, “Optimization of the antimicrobial peptide Bac7 by deep mutational scanning” (BMC Biology, 2022)
# Test system: Escherichia coli TOP10
# Assay: shrunken log2 fold change of peptide-encoding DNA abundance (4.5 h post-induction vs induction); higher = less antimicrobial activity (less host growth inhibition)
# Conditions: time post-induction: 4.5 h; library: site-saturation at positions 5, 18, 19, 20
# 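Further: peptides expressed intracellularly from a pBAD plasmid library in pooled LB shake-flask culture, induced with 0.3% L-arabinose, DNA abundance read by NGS, three biological replicates, DESeq2 with apeglm shrinkage.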
row,Sequence,shrunken log2 fold change
1,RRIRSRPPRLPRPRPRPCHVPRP,-0.0349
2,RRIRMRPPRLPRPRPRPNDMPRP,-0.204
3,RRIRWRPPRLPRPRPRPVMRPRP,0.0188
4,RRIRDRPPRLPRPRPRPRPDPRP,0.379
5,RRIRRRPPRLPRPRPRPAFSPRP,-0.00711
6,RRIRRRPPRLPRPRPRPNTCPRP,0.0105
7,RRIRIRPPRLPRPRPRPQHYPRP,-1.3
8,RRIRKRPPRLPRPRPRPYDCPRP,-0.171
9,RRIRYRPPRLPRPRPRPSMSPRP,-1.19
10,RRIRPRPPRLPRPRPRPTRHPRP,0.43
11,RRIRNRPPRLPRPRPRPLYYPRP,-0.0384
12,RRIRIRPPRLPRPRPRPFIIPRP,-1.76
13,RRIRQRPPRLPRPRPRPQQFPRP,0.0507
14,RRIRMRPPRLPRPRPRPMRPPRP,1.79
15,RRIRARPPRLPRPRPRPYTIPRP,-0.236
16,RRIRWRPPRLPRPRPRPPSWPRP,1.32
17,RRIRWRPPRLPRPRPRPEGLPRP,0.267
18,RRIRHRPPRLPRPRPRPPNKPRP,-0.171
19,RRIRARPPRLPRPRPRPNCHPRP,-0.0678
20,RRIRMRPPRLPRPRPRPPGGPRP,1.15
21,RRIRPRPPRLPRPRPRPHRFPRP,0.645
22,RRIRDRPPRLPRPRPRPAGYPRP,0.528
23,RRIRSRPPRLPRPRPRPVIQPRP,-0.178
24,RRIRLRPPRLPRPRPRPRTGPRP,0.321
25,RRIRWRPPRLPRPRPRPMPMPRP,0.112

row,Sequence,shrunken log2 fold change
1,RRIRFRPPRLPRPRPRPINRPRP,0.0882
2,RRIRLRPPRLPRPRPRPANLPRP,-0.00914
3,RRIRHRPPRLPRPRPRPRSHPRP,-0.221
4,RRIRGRPPRLPRPRPRPLSVPRP,0.383
5,RRIRCRPPRLPRPRPRPVMNPRP,-0.0483
6,RRIRQRPPRLPRPRPRPKQMPRP,0.114
7,RRIRKRPPRLPRPRPRPWFSPRP,-0.329
8,RRIRERPPRLPRPRPRPWWQPRP,-0.0206
9,RRIRGRPPRLPRPRPRPMSPPRP,0.00263
10,RRIRHRPPRLPRPRPRPTTDPRP,-0.136
11,RRIRVRPPRLPRPRPRPHNLPRP,-0.356
12,RRIRLRPPRLPRPRPRPATHPRP,0.253
13,RRIRSRPPRLPRPRPRPWQGPRP,0.0115
14,RRIRLRPPRLPRPRPRPMHIPRP,0.0952
15,RRIRARPPRLPRPRPRPMLSPRP,0.133
16,RRIRNRPPRLPRPRPRPRMFPRP,-0.362
17,RRIRCRPPRLPRPRPRPKYPPRP,-0.196
18,RRIRSRPPRLPRPRPRPGVQPRP,-0.0497
19,RRIRCRPPRLPRPRPRPVFGPRP,-0.0365
20,RRIRGRPPRLPRPRPRPHYWPRP,0.12
21,RRIRWRPPRLPRPRPRPIIAPRP,0.00853
22,RRIRQRPPRLPRPRPRPAQKPRP,-0.0027
23,RRIRPRPPRLPRPRPRPRMDPRP,0.176
24,RRIRRRPPRLPRPRPRPQHQPRP,0.246
25,RRIRGRPPRLPRPRPRPCFYPRP,0.156

row,Sequence,shrunken log2 fold change
1,RRIRGRPPRLPRPRPRPCYMPRP,-0.328
2,RRIRIRPPRLPRPRPRPELWPRP,0.243
3,RRIRLRPPRLPRPRPRPCYAPRP,-0.0464
4,RRIRYRPPRLPRPRPRPYIGPRP,-0.0919
5,RRIRNRPPRLPRPRPRPVLVPRP,-0.211
6,RRIRMRPPRLPRPRPRPNMHPRP,-0.0148
7,RRIRYRPPRLPRPRPRPQTKPRP,-0.168
8,RRIRSRPPRLPRPRPRPTAGPRP,0.679
9,RRIRGRPPRLPRPRPRPAVCPRP,0.938
10,RRIRLRPPRLPRPRPRPIETPRP,-0.0258
11,RRIRVRPPRLPRPRPRPEGWPRP,0.762
12,RRIRGRPPRLPRPRPRPVPFPRP,0.289
13,RRIRGRPPRLPRPRPRPGSNPRP,0.0237
14,RRIRWRPPRLPRPRPRPHWEPRP,0.323
15,RRIRHRPPRLPRPRPRPKCCPRP,-0.0444
16,RRIRWRPPRLPRPRPRPNICPRP,0.0504
17,RRIRTRPPRLPRPRPRPRWNPRP,0.969
18,RRIRDRPPRLPRPRPRPPADPRP,0.594
19,RRIRWRPPRLPRPRPRPKSVPRP,-0.0882
20,RRIRSRPPRLPRPRPRPGNSPRP,0.0554
21,RRIRARPPRLPRPRPRPAPWPRP,0.632
22,RRIRSRPPRLPRPRPRPTHPPRP,0.298
23,RRIRRRPPRLPRPRPRPLTEPRP,0.793
24,RRIRPRPPRLPRPRPRPGYEPRP,-0.172
25,RRIRKRPPRLPRPRPRPNSKPRP,0.0385

row,Sequence,shrunken log2 fold change
1,RRIRHRPPRLPRPRPRPGVNPRP,-0.000777
2,RRIRCRPPRLPRPRPRPGDGPRP,0.646
3,RRIRHRPPRLPRPRPRPLYPPRP,-0.804
4,RRIRYRPPRLPRPRPRPVVQPRP,0.0013
5,RRIRIRPPRLPRPRPRPQCAPRP,-0.272
6,RRIRQRPPRLPRPRPRPFTLPRP,-0.0549
7,RRIRGRPPRLPRPRPRPWHVPRP,-0.0733
8,RRIRSRPPRLPRPRPRPHRYPRP,-0.606
9,RRIRHRPPRLPRPRPRPMKCPRP,-0.0796
10,RRIRFRPPRLPRPRPRPKSQPRP,-0.0404
11,RRIRDRPPRLPRPRPRPLMDPRP,0.172
12,RRIRVRPPRLPRPRPRPTGVPRP,0.0149
13,RRIRSRPPRLPRPRPRPESTPRP,0.0707
14,RRIRARPPRLPRPRPRPSDPPRP,-0.0252
15,RRIRARPPRLPRPRPRPYRSPRP,-0.51
16,RRIRMRPPRLPRPRPRPNAFPRP,0.344
17,RRIRVRPPRLPRPRPRPAKKPRP,0.0179
18,RRIRWRPPRLPRPRPRPRCNPRP,0.0644
19,RRIRFRPPRLPRPRPRPAAVPRP,0.169
20,RRIRQRPPRLPRPRPRPQDQPRP,-0.276
21,RRIRPRPPRLPRPRPRPQQKPRP,0.433
22,RRIRWRPPRLPRPRPRPAENPRP,0.568
23,RRIRVRPPRLPRPRPRPQTIPRP,-0.127
24,RRIRMRPPRLPRPRPRPIGQPRP,0.00911
25,RRIRARPPRLPRPRPRPGFHPRP,0.245

row,Sequence,shrunken log2 fold change
1,RRIRIRPPRLPRPRPRPQVMPRP,-0.604
2,RRIRLRPPRLPRPRPRPLRRPRP,0.249
3,RRIRIRPPRLPRPRPRPKQCPRP,-0.178
4,RRIRGRPPRLPRPRPRPNIPPRP,-0.251
5,RRIRQRPPRLPRPRPRPTGRPRP,0.146
6,RRIRARPPRLPRPRPRPVNGPRP,-0.133
7,RRIRERPPRLPRPRPRPKYVPRP,-0.475
8,RRIRHRPPRLPRPRPRPCSEPRP,0.0248
9,RRIRTRPPRLPRPRPRPLMCPRP,-0.151
10,RRIRARPPRLPRPRPRPSVAPRP,0.485
11,RRIRARPPRLPRPRPRPVCIPRP,0.11
12,RRIRRRPPRLPRPRPRPMHMPRP,0.121
13,RRIRYRPPRLPRPRPRPDGCPRP,-0.029
14,RRIRSRPPRLPRPRPRPTWCPRP,0.18
15,RRIRQRPPRLPRPRPRPNNGPRP,-0.361
16,RRIRMRPPRLPRPRPRPVNTPRP,0.0779
17,RRIRLRPPRLPRPRPRPECYPRP,-0.235
18,RRIRIRPPRLPRPRPRPVNRPRP,-0.195
19,RRIRFRPPRLPRPRPRPMRMPRP,-0.0248
20,RRIRPRPPRLPRPRPRPVFLPRP,-0.128
21,RRIRVRPPRLPRPRPRPMFVPRP,0.00262
22,RRIRIRPPRLPRPRPRPKFYPRP,-0.713
23,RRIRRRPPRLPRPRPRPMVYPRP,0.119
24,RRIRARPPRLPRPRPRPRFVPRP,0.457
25,RRIRFRPPRLPRPRPRPVLFPRP,-0.172
